Data: paper PMC4538832, “Structures of the T. brucei kRNA editing factor MRB1590 reveal unique RNA-binding pore motif contained within an ABC-ATPase fold” (Nucleic Acids Research, 2015)
pKd: −log10 of the molar value.

tested on: T1, MRB1590(10-668) (Trypanosoma brucei), UPI00067E648B; assay: fluorescence polarization; details: FP: 20 mM Tris-HCl pH 7.5, 150 mM NaCl, 5% glycerol, 1 mM MgCl2, 2 mM ADP or AMP-PNP, 1 nM 3'-fluoresceinated RNA (heated to 99 C, slow cooled), 25 C
T1 sequence: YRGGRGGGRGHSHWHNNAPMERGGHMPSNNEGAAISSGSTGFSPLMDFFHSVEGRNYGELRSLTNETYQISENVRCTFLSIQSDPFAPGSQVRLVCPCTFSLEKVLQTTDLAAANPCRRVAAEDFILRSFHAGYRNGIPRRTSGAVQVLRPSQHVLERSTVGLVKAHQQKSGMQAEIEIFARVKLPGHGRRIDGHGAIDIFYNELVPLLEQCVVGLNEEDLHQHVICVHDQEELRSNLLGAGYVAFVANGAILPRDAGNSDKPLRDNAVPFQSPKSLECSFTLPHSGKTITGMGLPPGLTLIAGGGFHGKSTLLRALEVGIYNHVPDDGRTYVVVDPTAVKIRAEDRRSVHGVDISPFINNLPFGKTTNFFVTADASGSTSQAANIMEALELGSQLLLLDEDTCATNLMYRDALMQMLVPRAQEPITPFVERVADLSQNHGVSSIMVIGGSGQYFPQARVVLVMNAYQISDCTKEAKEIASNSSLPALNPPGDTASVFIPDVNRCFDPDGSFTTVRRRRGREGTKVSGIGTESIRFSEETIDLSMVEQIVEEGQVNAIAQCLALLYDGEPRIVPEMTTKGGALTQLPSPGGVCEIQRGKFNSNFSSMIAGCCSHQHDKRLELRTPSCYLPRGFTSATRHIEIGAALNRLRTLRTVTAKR

Substance | pKd
GC-rich RNA 18 mer | 8.24
GC-rich RNA 14 mer | 6.63
GC-rich RNA 15 mer | 7.55
GC-rich RNA 16 mer | 8.09
40 mer GC-rich A6 | 8.89
